System: Escherichia coli TOP10
Assay: shrunken log2 fold change of peptide-encoding DNA abundance (4.5 h post-induction vs induction); higher = less antimicrobial activity (less host growth inhibition)
Conditions: time post-induction: 4.5 h; library: site-saturation at positions 5, 18, 19, 20
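Also: peptides expressed intracellularly from a pBAD plasmid library in pooled LB shake-flask culture, induced with 0.3% L-arabinose, DNA abundance read by NGS, three biological replicates, DESeq2 with apeglm shrinkage.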

Sequence | shrunken log2 fold change
RRIRERPPRLPRPRPRPCTDPRP | -0.169
RRIRFRPPRLPRPRPRPGWCPRP | 0.109
RRIRARPPRLPRPRPRPTMKPRP | 0.296
RRIRMRPPRLPRPRPRPMPFPRP | 0.221
RRIRDRPPRLPRPRPRPCWAPRP | 0.125
RRIRMRPPRLPRPRPRPCCRPRP | 0.0467
RRIRHRPPRLPRPRPRPYFVPRP | -0.84
RRIRIRPPRLPRPRPRPMPQPRP | -0.133
RRIRWRPPRLPRPRPRPLCWPRP | 0.513
RRIRLRPPRLPRPRPRPFKVPRP | 0.0321
RRIRDRPPRLPRPRPRPGPRPRP | 0.787
RRIRWRPPRLPRPRPRPCMAPRP | 0.312
RRIRMRPPRLPRPRPRPMEQPRP | 1.29
RRIRKRPPRLPRPRPRPATFPRP | -0.0215
RRIRTRPPRLPRPRPRPALQPRP | 0.278
RRIRKRPPRLPRPRPRPNTLPRP | -0.0816
RRIRDRPPRLPRPRPRPASCPRP | 0.0585
RRIRTRPPRLPRPRPRPNGMPRP | -0.245
RRIRWRPPRLPRPRPRPIFRPRP | 0.0199
RRIRYRPPRLPRPRPRPGGYPRP | -0.00146

Sequence | shrunken log2 fold change
RRIRLRPPRLPRPRPRPAMLPRP | -0.0377
RRIRYRPPRLPRPRPRPCCRPRP | -0.732
RRIRLRPPRLPRPRPRPMGMPRP | 0.0771
RRIRWRPPRLPRPRPRPTGFPRP | 0.645
RRIRHRPPRLPRPRPRPHCAPRP | -0.109
RRIRVRPPRLPRPRPRPPWEPRP | 0.252
RRIRWRPPRLPRPRPRPYDSPRP | -0.377
RRIRPRPPRLPRPRPRPYMYPRP | -0.634
RRIRDRPPRLPRPRPRPSNPPRP | -0.281
RRIRRRPPRLPRPRPRPWDQPRP | 0.0792
RRIRMRPPRLPRPRPRPEWPPRP | 0.0994
RRIRRRPPRLPRPRPRPMCPPRP | -0.119
RRIRTRPPRLPRPRPRPQHSPRP | -0.183
RRIRCRPPRLPRPRPRPREGPRP | 1.09
RRIRPRPPRLPRPRPRPWIDPRP | -0.35
RRIRVRPPRLPRPRPRPATHPRP | -0.0884
RRIRRRPPRLPRPRPRPNHDPRP | 0.196
RRIRCRPPRLPRPRPRPMFKPRP | -0.536
RRIRMRPPRLPRPRPRPVRPPRP | 1.76
RRIRTRPPRLPRPRPRPADTPRP | -0.215

Sequence | shrunken log2 fold change
RRIRARPPRLPRPRPRPVGGPRP | 0.571
RRIRARPPRLPRPRPRPRHCPRP | -0.0733
RRIRHRPPRLPRPRPRPARDPRP | 0.147
RRIRTRPPRLPRPRPRPHCPPRP | -0.605
RRIRCRPPRLPRPRPRPHGTPRP | -0.0488
RRIRYRPPRLPRPRPRPDRAPRP | -0.0598
RRIRQRPPRLPRPRPRPYYHPRP | -0.413
RRIRARPPRLPRPRPRPDDEPRP | 1.43
RRIRGRPPRLPRPRPRPHICPRP | -0.0626
RRIRGRPPRLPRPRPRPRICPRP | 0.335
RRIRMRPPRLPRPRPRPHWFPRP | 0.0685
RRIRHRPPRLPRPRPRPVFLPRP | -0.582
RRIRYRPPRLPRPRPRPQEVPRP | 0.013
RRIRSRPPRLPRPRPRPAWKPRP | 0.186
RRIRNRPPRLPRPRPRPYMAPRP | -0.0692
RRIRLRPPRLPRPRPRPRERPRP | 0.612
RRIRARPPRLPRPRPRPHAAPRP | 0.635
RRIRSRPPRLPRPRPRPQDRPRP | -0.0318
RRIRVRPPRLPRPRPRPKIEPRP | 0.132
RRIRMRPPRLPRPRPRPTVIPRP | -0.271

— the supplement of paper PMC9112550, “Optimization of the antimicrobial peptide Bac7 by deep mutational scanning” (BMC Biology, 2022)
